These results are taken from paper PMC9697189, “Peptide-Based [^68Ga]Ga Labeled PET Tracer for Tumor Imaging by Targeting Tumor-Associated Macrophages” (Pharmaceutics, 2022).

Series [1] can be described thus: in vivo. Also on record: species or system C57B/L6 mice. The note with it: male, C57B/L6, mouse, iv, 3.7 MBq, total radioactivity. The procedure: (§1) The male C57B/L6 mice (6–8 weeks old, 20–25 g) were purchased from HFK bioscience (Beijing, China) and divided randomly into the experimental and blocking groups. All the studies were approved by the experimental animal ethics committee of Sichuan University and were conducted in compliance with the institutional guidelines for the care and use of laboratory animals. The C57B/L6 mice were injected subcutaneously with 5 × 10^6 B16-F10 cells in 100 µL of PBS into the forelimb of the animals under anesthesia with isoflurane. After 7–10 days, the B16F10 tumor-bearing mice were established and prepared for imaging and biodistribution when xenografts grew to 500–1000 mm^3.
(§2) PET scans were performed using a micro-PET/CT scanner (Inviscan, IRIS, Paris, France). [^68Ga]Ga-DOTA-M2pep (3.7 MBq) was administered to the B16F10 tumor-bearing mice (n = 4) via the tail vein. At 30 min, 1 h, and 2 h post-injection, the tumor-bearing mice were imaged with the micro-PET/CT scan under anesthesia with 2% isoflurane. Each scan was completed within 15 min. For the blocking scans, B16F10 tumor-bearing mice (n = 3) were pretreated with free M2pep (10 mM) in 100 μL saline by intravenous injection 60 min before administration of [^68Ga]Ga-DOTA-M2pep (3.7 MBq). Micro-PET/CT scans were acquired at 60 min post-injection as described above. The obtained images were reconstructed using three-dimensional ordered-subset expectation maximization (3D OSEM) and then processed using Osirix MD. Regions of interest (ROIs) were manually drawn over the tumor regions and organs, and quantitative analyses were calculated. Immunofluorescence staining was performed 24 h after micro-PET scan to determine the [^68Ga]Ga-DOTA-M2pep targeting efficiency. The harvested tumors were fixed with paraformaldehyde for 24 h, then were frozen and sectioned at 10 μm, followed by treatment with Fitc-M2pep, and staining with M2 TAMs marker PE-CD206 antibody and DAPI.

The subject of series [2] is B16F10 tumor-bearing mice. The series can be described thus: in vivo. Also on record: species or system C57B/L6 mice. The note with it: mouse. On the procedure:
as §1, §2

The nature of series [3]: in vivo. Also on record: species or system C57B/L6 mice. The note with it: male, C57B/L6, mouse, iv, 1.11 MBq, total radioactivity. The procedure: The male C57B/L6 mice (6–8 weeks old, 20–25 g) were purchased from HFK bioscience (Beijing, China) and divided randomly into the experimental and blocking groups. All the studies were approved by the experimental animal ethics committee of Sichuan University and were conducted in compliance with the institutional guidelines for the care and use of laboratory animals. The C57B/L6 mice were injected subcutaneously with 5 × 10^6 B16-F10 cells in 100 µL of PBS into the forelimb of the animals under anesthesia with isoflurane. After 7–10 days, the B16F10 tumor-bearing mice were established and prepared for imaging and biodistribution when xenografts grew to 500–1000 mm^3. The B16F10 tumor-bearing mice (n = 3) were intravenously administered [^68Ga]Ga-DOTA-M2pep (1.11 MBq) for biodistribution studies. At 5, 15, 30, 60 min, and 2 h post-injection, mice were euthanized, and the organs of interest, including the blood, heart, lungs, liver, kidneys, spleen, stomach, intestine, muscle, bone, brain, and tumor, were harvested. The samples were then weighed and counted by an automatic γ-counter (PerkinElmer Wizard, Shelton, CT, USA). In the blocking group, the B16F10 tumor-bearing mice (n = 3) were pretreated with free M2pep (10 mM) in 100 μL saline by intravenous injection 60 min before administration of [^68Ga]Ga-DOTA-M2pep (1.11 MBq). The organs of interest were harvested, weighed, and counted as described above at 60 min post-injection. The percentage of tracer uptake was calculated as the percentage of injected dose per gram of tissue (%ID/g), which was decay-corrected to the start time of counting. The percentage reflected the activity associated with tissues per organ weight per actual injected dose.

The next series can be described thus: in vitro. The note with it: serum. It counts as in vitro ADME, bovine. On the procedure:
DOTA-M2pep (80 μg) was dissolved in 200 μL of purified water in a small vial. About 200 μL of [^68Ga]GaCl3 (44.4–59.2 MBq) was added, and 1 M sodium acetate buffer was used to adjust the final pH to 4.0–4.5. After incubation in a water bath at 55 °C for 30 min, the radiolabeling reaction was completed, and the mixture was collected. Radio-HPLC was performed to confirm the radiochemical purity of [^68Ga]Ga-DOTA-M2pep. The mobile phase was composed of solvent A, acetonitrile (ACN) solution, and solvent B, 0.1% trifluoroacetic acid (TFA) in water. The gradient solvent system was set up as follows: 0–8 min, 70% A and 30% B; 8–15 min, 100% A and 0% B; 15–17 min, 5% A and 95% B; 17–20 min, 95% A and 5% B at a flow rate of 1.0 mL/min. To investigate the in vitro stability, 3.7 MBq [^68Ga]Ga-DOTA-M2pep (100 μL) was incubated in the same volume of phosphate-buffered saline (PBS, pH = 7.4) or bovine serum at 37 °C, respectively. The radiochemical purity was assessed at 15, 30, 60, and 120 min. All experiments were performed in triplicate.

Peptide text beside a SMILES is read from it. * marks the point of attachment. DOTA = O=C(O)CN1CCN(CC(=O)O)CCN(CC(=O)*)CCN(CC(=O)O)CC1

Broadly, the tissue uptake is the percentage of the injected dose found per gram of tissue. As a reminder, the fraction remaining is what is left of the initial amount, in per cent. A higher fraction remaining goes with greater stability. For the compound `CC(C)[C@H](NC(=O)CNC(=O)[C@H](Cc1c[nH]c2ccccc12)NC(=O)[C@@H]1CCCN1C(=O)[C@H](CC(=O)O)NC(=O)[C@H](CCC(N)=O)NC(=O)[C@H](CCC(=O)O)NC(=O)[C@H](Cc1ccc(O)cc1)NC(=O)CN1CCN(CC(=O)O)CCN(CC(=O)O)CCN(CC(=O)O)CC1)C(=O)N[C@@H](CCCCN)C(=O)N[C@@H](Cc1c[nH]c2ccccc12)C(=O)N[C@@H](Cc1c[nH]c2ccccc12)C(=O)N[C@@H](Cc1ccc(O)cc1)C(=O)O` [[^68Ga]Ga-DOTA-M2pep, metal not drawn] ({DOTA}-YEQDPWGVKWWY-OH), in the series “in vivo [1]”, the tissue to tissue ratio at 0.5 h is 3.19 ± 0.22, the tissue to tissue ratio at 2 h was 3.12 ± 0.83, the tissue uptake at 0.5 h is 2.72 ± 0.07 %ID/g and the tissue uptake at 1 h stood at 2.93 ± 0.2 %ID/g. The tissue uptake at 2 h in the series “in vivo [1]” came out at 2.47 ± 0.13 %ID/g. Besides, the “tumor/muscle ratio (PET)” value in series [2] came out at 3.35 ± 0.27. Besides, in the series “in vivo [3]” (blood uptake), the tissue uptake at 5 min was determined as 10.5 ± 2.2 %ID/g and the tissue uptake at 1 h worked out at 1.84 ± 0.02 %ID/g. Also, the tissue uptake at 5 min in the series “in vivo [3]” (kidney uptake (peak)) is 12.7 ± 3.71 %ID/g. Also, the tissue uptake at 1 h in “in vivo [3]” (liver uptake) amounted to 0.96 ± 0.02 %ID/g. In addition, in the series “in vivo [3]” (tumor uptake), the tissue uptake at 1 h stood at 3.35 ± 0.34 %ID/g and the tissue uptake at 2 h was determined as 3.12 ± 0.27 %ID/g. In the series “in vitro”, the fraction remaining at 2 h, 18.5 MBq/mL is more than 85%.
